Source: patent US6696546B1, “Peptide that kills growing but not stationary cells” (The Trustees of Columbia University in the City of New York, priority 2000, dated 2004)

What was measured:
cyclin A/cdk2 = cyclin A/cdk2 (Homo sapiens, UniProt P20248); assay: in vitro kinase assay, pRB phosphorylation by cyclin A/cdk2; type: biochemical; settings: peptide 9 μM and 18 μM; for pRB phosphorylation by cyclin A/cdk2: γ-32P ATP, SDS-PAGE, autoradiography
HaTCat cells = assay: DNA content by propidium iodide staining and FACS, HaTCat cells; type: cell-based, human; settings: for S-phase population of cells: confluent (resting) HaTCat cells
Source text: A graphical representation of DNA content of cells as collected by propidium iodide staining and subsequent FACS analysis. G0/G1, S, and G2M phases are depicted of cells either treated or not treated with cell permeable peptides. The percentage of untreated cell in a given phase are in white, PAP's CRM in (SEQ ID NO: 3) black, p21's in gray (SEQ ID NO: 5), scrambled in horizontal stripes (SEQ ID NO: 4), internalization sequence alone in vertical stripes (SEQ ID NO: 2).
(A) PAP's CRM (SEQ ID NO: 3) kills growing HaTCats, but stimulates S-phase entry of stationary HaTCats. The bar graph depicts the fold induction over non-treated cells of sub-G1 DNA content and S-phase DNA content of four different populations of cells. The percentage of cells found S-phase of each population is noted below the bar graph. Sub-G1 DNA content and S-phase DNA content are depicted of cells either treated or not treated with cell permeable peptides. The percentages of untreated cell in a given phase are in white, PAP's CRM (SEQ ID NO: 3) in black, p21's in gray (SEQ ID NO: 5), and scrambled in stripes (SEQ ID NO: 4).
Panel B of FIG. 7 is a graphical representation of DNA content of cells, derived from propidium iodide staining and subsequent the fluorescence-activated cell sorter (FACS) analysis. In this experiment, an immortalized human karitinocyte cell line (HaTCat) was treated with the cell-membrane permeable form of PAP's CRM (SEQ ID NO:3). […] This is not observed with the scrambled sequence (SEQ ID NO:4), nor the p21 (SEQ ID NO:5) nor the penetratin sequence alone (SEQ ID NO:2).
FIG. 8 is a graphical representation of the fold induction, over untreated control cells, of sub-G1 DNA content and S-phase DNA content of four different populations of HaTCat cells. These populations vary in their proliferation rates due to their confluency, starting with the least confluent population of cells, with 30% in S-phase, to the most confluent population, with only 3.5% in S-phase. Cycling cells, with over 30% of cells in S-phase, die when treated with the SEQ ID NO:3.
(§1) After treatment with or without cell membrane permeable peptides (Synpep), cells were trypsinized, centrifuged and washed in PBS. Cell were than fixed with methanol and kept at −20° C. for 40 min or overnight. After washing and equilibration in PBS, the cell pellet was resuspended in 1 ml of staining solution containing 50 μg of RNase A and 0.5 μg of propidium iodide per ml in PBS, and kept at room temperature for over 30 minutes. The cells were then applied to the fluorescence-activated cell sorter (FACSCalibur; Becton Dickson). The FACSCalibur program was used to sort and count the cells, and the Modfit program was used to calculate the percentage of cells in the G0/G1, S, and G2/M phases.

MEFs [1] = assay: DNA content by propidium iodide staining and FACS, mouse embryo fibroblasts; type: cell-based; settings: sub-confluent MEFs; for percentage of cells with S-phase DNA content / percentage of cells with sub-G1 DNA content: one hour, SEQ ID NO:3 1.87-30 μM, controls 30 μM
Protocol: (A) PAP's CRM stimulates both the percentage of cells with sub-G1 DNA content and S-phase DNA content in a dose dependent manner. DNA content as measured by FACS analysis is graphically represented.
(B) PAP's CRM stimulates cell death over time. The percentage of cells with a sub-G1 DNA content with or without treatment with 30 μM of PAP's CRM (SEQ ID NO: 3) for varying lengths of time is shown.
(C) The percents of cells with G0/G1 (in black), S (in gray), and G2/M (in white) DNA contents of the same population of cells in (B) are depicted.
Panel A depicts the MEF's response to a concentration curve of SEQ ID NO:3. […] After a one hour incubation, cells were harvested for propidium iodine staining and subsequent FACS analysis.
To further study the MEF's reactions to the membrane permeable peptide, SEQ ID NO:3, and to determine if the increase in S-phase depicts a stimulation or inhibition of proliferation, treatment with one concentration was followed at varying time points. Sub-confluent MEFs were treated with 30 μM SEQ ID NO:3, harvested at different time points, and their DNA content was analyzed by propidium iodide staining and subsequent FACS analysis. FIG. 10 panel B depicts the percentage of death initiated over time, as measured by sub-G1 DNA content. 30% of the cells die after the first hour of treatment, 50% by the forth. […], depicts the cell cycle analysis over time of those cells that are not dying. Here, the stimulation of the cell cycle over time by SEQ ID NO:3, is clearly seen, ruling out an inhibitory effect. In the first hour, 25% of the cycling cells are induced into S-phase, and in time, into G2/M and back into G1.
as §1

[2] = target: cyclin D1-cdk2 association (Homo sapiens, UniProt P24385); assay: GST-cyclin D1 binding assay with cdk2; settings: peptide 9 μM and 20 μM; Western blot
pRB knock out MEFs = assay: DNA content by FACS, pRB knock out mouse embryo fibroblasts; type: cell-based
Source text: (A) A graphical representation of the fold induction of sub-G1 DNA content in cells with or without pRB, as indicated below the graph. […] (B) A graphical representation of the fold induction of S-phase DNA content in the same cells.
The ability of SEQ ID NO:3 to stimulate both death and proliferation in mouse embryo fibroblasts, allows us to test the model, wherein pRB inhibits cell death after treatment with SEQ ID NO:3, thereby allowing for stimulation of proliferation (FIG. 9). In the absence of pRB, cells would no longer have the anti-apoptotic activity of pRB, and treatment with SEQ ID NO:3 would lead only to cell death. In the experiment shown in FIG. 11, two genetically identical populations of cells were used, except that one was pRB minus, by way of knock out technology. The fold inductions of both sub-G1 and S-phase are represented in FIG. 11. Upon treatment with SEQ ID NO:3, here done in duplicate, the cells with pRB show at least a two-fold induction of S-phase after one hour of treatment. The cells without pRB show none, but therefore a dramatic (up to 50 fold) induction of death.
After treatment with or without cell membrane permeable peptides (Synpep), cells were trypsinized, centrifuged and washed in PBS. […] The cells were then applied to the fluorescence-activated cell sorter (FACSCalibur; Becton Dickson). […]

Wi38 cells = assay: DNA content by propidium iodide staining and FACS, Wi38 cells; type: cell-based, human
MEFs [3] = assay: DNA content by propidium iodide staining and FACS, mouse embryo fibroblasts; type: cell-based; settings: MEFs with pRB, after one hour of treatment, duplicate
[4] = target: PAP-cyclin B1 interaction (Homo sapiens, UniProt P14635); assay: GST-cyclin B1 pull-down assay of PAP binding
Chain of PAP-cyclin B1 interaction (P14635 whole entry): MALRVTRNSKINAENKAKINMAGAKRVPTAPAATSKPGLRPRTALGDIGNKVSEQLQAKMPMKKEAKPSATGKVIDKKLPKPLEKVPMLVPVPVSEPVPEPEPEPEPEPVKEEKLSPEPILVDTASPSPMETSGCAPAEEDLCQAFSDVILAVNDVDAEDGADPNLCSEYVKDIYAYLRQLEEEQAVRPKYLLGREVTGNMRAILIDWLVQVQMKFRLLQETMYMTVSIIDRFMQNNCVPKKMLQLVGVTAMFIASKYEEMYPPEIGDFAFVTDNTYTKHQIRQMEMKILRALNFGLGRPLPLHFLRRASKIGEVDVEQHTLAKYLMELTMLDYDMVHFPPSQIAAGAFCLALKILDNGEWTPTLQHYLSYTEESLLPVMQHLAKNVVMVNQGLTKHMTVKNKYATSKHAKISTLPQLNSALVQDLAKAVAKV

cyclin B1/cdc2 = cyclin B1/cdc2 (Homo sapiens, UniProt P14635); assay: in vitro kinase assay, pRB phosphorylation by cyclin B1/cdc2; type: biochemical; settings: peptide 18 μM
Chain of cyclin B1/cdc2 (P14635 whole entry): as above
Chain of cyclin B1/cdc2 (P06493 whole entry partner): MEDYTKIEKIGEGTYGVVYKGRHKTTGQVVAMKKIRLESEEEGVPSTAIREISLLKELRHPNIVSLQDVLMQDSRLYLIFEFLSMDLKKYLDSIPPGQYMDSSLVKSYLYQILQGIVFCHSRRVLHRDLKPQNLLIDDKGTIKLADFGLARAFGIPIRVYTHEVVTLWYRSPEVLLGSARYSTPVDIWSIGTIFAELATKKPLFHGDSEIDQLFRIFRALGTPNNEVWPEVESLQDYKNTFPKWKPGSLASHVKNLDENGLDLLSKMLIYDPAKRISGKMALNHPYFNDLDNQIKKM

LRSGIKVI (scrambled sequence) [SEQ ID NO:4, fused to penetratin in cell tests, reference compound]
pRB phosphorylation by cyclin A/cdk2 (cyclin A/cdk2): no effect
S-phase population of cells (HaTCat cells): not observed
percentage of cells with S-phase DNA content (MEFs [1]): No effects
percentage of cells with sub-G1 DNA content (MEFs [1]): No effects
presence of cdk2 in the eluate of GST-cyclin D1 [2]: without significant effect

SEQ ID NO:3: 8-mer peptide (SEQ ID NO:1) fused to penetratin (SEQ ID NO:2); cell-membrane permeable form of PAP's CRM (RQIKIWFQNRRMKWKKSKIRILVG; poly(A) polymerase cyclin recognition motif fued to Drosohilia Antennapedia homeodomain residues)
fold induction of death (sub-G1 DNA content) (pRB knock out MEFs): up to 50 fold
fold induction of S-phase (pRB knock out MEFs; MEFs without pRB, after one hour of treatment): none
S-phase population of cells (HaTCat cells): dramatic increase
cell death (sub-G1 DNA content) (HaTCat cells; cycling HaTCat cells, over 30% of cells in S-phase): die
cell death (sub-G1 DNA content) (HaTCat cells; most confluent HaTCat population, 3.5% in S-phase): cell death is in fact inhibited
cells that die (sub-G1 DNA content) (MEFs [1]; 30 μM, after the first hour): 30%
cells that die (sub-G1 DNA content) (MEFs [1]; 30 μM, by the fourth hour): 50%
cycling cells induced into S-phase (MEFs [1]; 30 μM, in the first hour): 25%
percentage of cells with S-phase DNA content (MEFs [1]): dramatically increased
percentage of cells with sub-G1 DNA content (MEFs [1]): dramatically increased
Wi38 death (sub-G1 DNA content) (Wi38 cells; populations of varying confluency): able to induce Wi38 death in a growth dependent manner
decrease in fold induction of sub G1 DNA content (Wi38 cells; with the increase in confluency and decrease in growth): 30 fold
fold induction of S-phase (MEFs [3]): two

SKIRILVG (poly(A) polymerase cyclin recognition motif) [SEQ ID NO:1, synthetic 8-mer peptide spanning PAP's cyclin recognition motif (CRM)]
cyclin A phosphorylation in the same reaction mixture (cyclin A/cdk2; internal control for specificity): not cyclin A phosphorylation
pRB phosphorylation by cyclin A/cdk2 (cyclin A/cdk2): effectively inhibited
PAP I-GST-cyclin B1 binding ([4]; 2, 5, 10 and 20 μM peptide): dose-dependent enhancement
association of purified bacterial his-PAP I with GST-cyclin B1 ([4]; 2, 10 and 20 μM peptide, Western blot with anti-PAP antibody): strongly stimulated
input PAP bound to GST-cyclin B1 ([4]; highest peptide concentration, purified bacterial his-PAP I): ~100%
cyclin B1 autophosphorylation (cyclin B1/cdc2): not affected
phosphorylation of pRB by cyclin B1/cdc2 (cyclin B1/cdc2): strongly and specifically inhibited
presence of cdk2 in the eluate of GST-cyclin D1 [2]: significantly increased
